EC50 and IC50 data for four molecules are collected here from patent US20190367633A1 (published 2019).

Assay [1] concerns the target human HER2 (Beijing Yiyi) (human, UniProt P04626 23-652). Nature of the assay: ELISA. (In general: An ELISA detects its analyte on a solid surface through an enzyme-linked reagent.)
In assay [2] the target is Recombinant human PD-1 (Beijing Yiqiao Shenzhou, Cat. No. 10377-H08H) (human, UniProt Q15116 25-167). Nature of the assay: ELISA.
Assay [3] addresses T1, Recombinant human PD-1-Fc (human, UniProt Q15116 25-167). As to the kind of experiment: competition ELISA; blocking PD-1/PD-L1.
Assay [4] deals with T1, Recombinant human PD-1-Fc. Nature of the assay: competition ELISA; blocking PD-1/PD-L2.
Assay [5] concerns the target T1, Recombinant human PD-1-Fc. Nature of the assay: competition.

“And” between values parts separate entries of the source, which are not always exact repeats. Equal values may be shown once. Where only a bound is given, the exact number is not on record here.

Broadly, the EC50 is the midpoint of the concentration-response curve. The term IC50 denotes the point on the concentration scale where inhibition reaches its midpoint.

B1: PD-1 MONOCLONAL ANTIBODYBJHM (antibody, V domains shown)
VH: EVQLQESGGGLVKPGGSLKLSCAASGFTFSSYGMSWVRQTPEKRLEWVASISGGGRYTYYPDSMKGRFTISRDNAKNNLHLQMSSLRSEDTALYYCVYEYFYTMDYWGQGTSVTVSS
VL: DIVLTQSPATLSVTPGDSVSLSCRANQSISNNLHWYQQRSHESPRLLIRFASQSISGIPSRFSGSGSGTDFTLSINSVETEDFGMYFCQQSDNWPLTFGAGTKLEIK
Take B1: the EC50 in assay [1] is over 20 nM; in assay [2], over 0.08 nM. The 50% inhibitory concentration (IC50) in assay [3] is over 1.2 nM; in assay [4] it was over 1.11 nM.

B2: anti-PD-1pem/anti-HER2 heterodimeric bispecific antibody (bispecific antibody)
heavy 1: not shown
light 1: EIVLTQSPATLSLSPGERATLSCRASKGVSTSGYSYLHWYQQKPGQAPRLLIYLASYLESGVPARFSGSGSGTDFTLTISSLEPEDFAVYYCQHSRDLPLTFGGGTKVEIKRTVAAPSVFIFPPSDEQLKSGTASVVCLLNNFYPREAKVQWKVDNALQSGNSQESVTEQDSKDSTYSLSSTLTLSKADYEKHKVYACEVTHQGLSSPVTKSFNRGEC
heavy 2: not shown
light 2: not shown
B2: the concentration for half-maximal inhibition (IC50) in assay [5] is 3.68 nM and 4.54 nM.

B3: anti-PD-1BJHM/anti-HER2 heterodimeric bispecific antibody (bispecific antibody)
heavy 1: not shown
light 1: DIVLTQSPATLSVTPGDSVSLSCRANQSISNNLHWYQQRSHESPRLLIRFASQSISGIPSRFSGSGSGTDFTLSINSVETEDFGMYFCQQSDNWPLTFGAGTKLEIKRTVAAPSVFIFPPSDEQLKSGTASVVCLLNNFYPREAKVQWKVDNALQSGNSQESVTEQDSKDSTYSLSSTLTLSKADYEKHKVYACEVTHQGLSSPVTKSFNRGEC
heavy 2: not shown
light 2: not shown
In the case of B3, in assay [5], the IC50 is 2.06 nM and 1.95 nM.

B4: PD-1 MONOCLONAL ANTIBODYpem (antibody, V domains shown)
VH: QVQLVQSGVEVKKPGASVKVSCKASGYTFTNYYMYWVRQAPGQGLEWMGGINPSNGGTNFNEKFKNRVTLTTDSSTTTAYMELKSLQFDDTAVYYCARRDYRFDMGFDYWGQGTTVTVSS
VL: EIVLTQSPATLSLSPGERATLSCRASKGVSTSGYSYLHWYQQKPGQAPRLLIYLASYLESGVPARFSGSGSGTDFTLTISSLEPEDFAVYYCQHSRDLPLTFGGGTKVEIK
The molecule B4 came in with a half-maximal effective concentration (EC50) in assay [1] of over 20 nM.
